Source: IntAct's records for PubMed 23976881

B1: Heterogeneous nuclear ribonucleoprotein L (Homo sapiens), P14866-1 (parent)
chain: MSRRLLPRAEKRRRRLEQRQQPDEQRRRSGAMVKMAAAGGGGGGGRYYGGGSEGGRAPKRLKTDNAGDQHGGGGGGGGGAGAAGGGGGGENYDDPHKTPASPVVHIRGLIDGVVEADLVEALQEFGPISYVVVMPKKRQALVEFEDVLGACNAVNYAADNQIYIAGHPAFVNYSTSQKISRPGDSDDSRSVNSVLLFTILNPIYSITTDVLYTICNPCGPVQRIVIFRKNGVQAMVEFDSVQSAQRAKASLNGADIYSGCCTLKIEYAKPTRLNVFKNDQDTWDYTNPNLSGQGDPGSNPNKRQRQPPLLGDHPAEYGGPHGGYHSHYHDEGYGPPPPHYEGRRMGPPVGGHRRGPSRYGPQYGHPPPPPPPPEYGPHADSPVLMVYGLDQSKMNCDRVFNVFCLYGNVEKVKFMKSKPGAAMVEMADGYAVDRAITHLNNNFMFGQKLNVCVSKQPAIMPGQSYGLEDGSCSYKDFSESRNNRFSTPEQAAKNRIQHPSNVLHFFNAPLEVTEENFFEICDELGVKRPSSVKVFSGKSERSSSGLLEWESKSDALETLGFLNHYQMKNPNGPYPYTLKLCFSTAQHAS

Variants of: B1
Conditions: with roa2_human HNRNPA2B1, P22626
roa2_human HNRNPA2B1, P22626, sequence (P22626 whole entry): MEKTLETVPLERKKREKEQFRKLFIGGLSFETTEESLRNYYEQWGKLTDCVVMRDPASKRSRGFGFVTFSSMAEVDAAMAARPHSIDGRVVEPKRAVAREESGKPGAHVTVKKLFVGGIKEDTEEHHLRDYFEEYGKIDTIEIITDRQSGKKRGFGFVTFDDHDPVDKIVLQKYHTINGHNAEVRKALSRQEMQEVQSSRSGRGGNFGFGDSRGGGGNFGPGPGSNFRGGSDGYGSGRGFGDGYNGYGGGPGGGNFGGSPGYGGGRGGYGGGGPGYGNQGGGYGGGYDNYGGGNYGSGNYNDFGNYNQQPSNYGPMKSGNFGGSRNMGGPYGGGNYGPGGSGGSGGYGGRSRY

effect of a mutation on the interaction	Variant
increasing interaction strength	Y359D
